# From the RNAGym collection of RNA variant scans (doi:10.1093/nar/gkz1192)
# B1: CPEB3 Ribozyme (parent)
# chain: UAACAGGGGGCCACAGCAGAAGCGUUCACGUCGCAGCCCCUGUCAGAUUCUGGUGAAUCUGCGAAUUCUGCUGUAUAUCUC
# Variants of: B1
# Test: self-cleavage, relative activity (ratio to wild type); higher = more cleavage; in vitro, sequencing
# How it was run: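 CPEB3 self-cleaving ribozyme mutant libraries were made by rounds of error-prone PCR, barcoded, and transcribed in vitro with T7 RNA polymerase for 5 hours at 37°C. Cleavage occurred during transcription and a 15 min DNase I step before EDTA stop. RNAs were reverse transcribed with template switching and Illumina-sequenced, with DNA sequencing mapping barcodes to variants. Relative activity is the variant's cleaved/total read fraction divided by wild type's (minimum 5 reads), averaged across three batches.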
row,Variant,self-cleavage
1,UAACAGGGGGCCACAGCAGAAGCGUUCACGUCGCAGCCCCUGUCAGAUUCUGGUGAAUCUCCGAACUCUGCUGUAUAUCUC [G61C U66C],0.54
2,UAACAGGGGGCCACAGCAGAAGCGUUCACGUCGCAGCCCCUGUCAGAUUCUGGUGAAUCUCCGAAAUCUGCUGUAUAUCUC [G61C U66A],0.23
3,UAACAGGGGGCCACAGCAGAAGCGUUCACGUCGCAGCCCCUGUCAGAUUCUGGUGAAUCUACGAAUUCUGCUGUAUACCUC [G61A U78C],0.62
4,UAACAGGGGGCCACAGCAGAAGCGUUCACGUCGCAGCCCCUGUCAGAUUCUGGUGAAUCUUCGAAUUCUGCUGUAUAUCCC [G61U U80C],0.65
5,UAACAGGGGGCCACAGCAGAAGCGUUCACGUCGCAGCCCCUGUCAGAUUCUGGUGAAUCUCCGAAUUCUGCUGUAUAUCCC [G61C U80C],0.5
6,UAACAGGGGGCCACAGCAGAAGCGUUCACGUCGCAGCCCCUGUCAGAUUCUGGUGAAUCUCCUAAUUCUGCUGUAUAUCUC [G61C G63U],0.35
7,UAACAGGGGGCCACAGCAGAAGCGUUCACGUCGCAGCCCCUGUCAGAUUCUGGUGAAUCUCCGAAUUCUGCUGUAUAUCUC [G61C],0.34
8,UAACAGGGGGCCACAGCAGAAGCGUUCACGUCGCAGCCCCUGUCAGAUUCUGGUGAAUCUUCGAAUUCUGCUGUAUAUCUC [G61U],0.6
9,UAACAGGGGGCCACAGCAGAAGCGUUCACGUCGCAGCCCCUGUCAGAUUCUGGUGAAUCUGAGAAUUCUGCUGUAUAUCUC [C62A],0.31
10,UAACAGGGGGCCACAGCAGAAGCGUUCACGUCGCAGCCCCUGUCAGAUUCUGGUGAAUCUCCGAAUUCUGCCGUAUAUCUC [G61C U72C],0.34
11,UAACAGGGGGCCACAGCAGAAGCGUUCACGUCGCAGCCCCUGUCAGAUUCUGGUGAAUCUCCGUAUUCUGCUGUAUAUCUC [G61C A64U],0.32
12,UAACAGGGGGCCACAGCAGAAGCGUUCACGUCGCAGCCCCUGUCAGAUUCUGGUGAAUCUCCGGAUUCUGCUGUAUAUCUC [G61C A64G],0.19
13,UAACAGGGGGCCACAGCAGAAGCGUUCACGUCGCAGCCCCUGUCAGAUUCUGGUGAAUCUUCGAAUUCAGCUGUAUAUCUC [G61U U69A],0.3
14,UAACAGGGGGCCACAGCAGAAGCGUUCACGUCGCAGCCCCUGUCAGAUUCUGGUGAAUCUGAGGAUUCUGCUGUAUAUCUC [C62A A64G],0.25
15,UAACAGGGGGCCACAGCAGAAGCGUUCACGUCGCAGCCCCUGUCAGAUUCUGGUGAAUCUUCGAAUUCUGCUGCAUAUCUC [G61U U74C],1.19
16,UAACAGGGGGCCACAGCAGAAGCGUUCACGUCGCAGCCCCUGUCAGAUUCUGGUGAAUCUGAGAAUUCUGCUGUGUAUCUC [C62A A75G],0.12
17,UAACAGGGGGCCACAGCAGAAGCGUUCACGUCGCAGCCCCUGUCAGAUUCUGGUGAAUCUACGAAUUCUGCUGUAUAUCCC [G61A U80C],0.9

row,Variant,self-cleavage
1,UAACAGGGGGCCACAGCAGAAGCGUUCACGUCGCAGCCCCUGUCAGAUUCUGGUGAAUCUACGAAUUCUGCUGUAUAUCAC [G61A U80A],0.91
2,UAACAGGGGGCCACAGCAGAAGCGUUCACGUCGCAGCCCCUGUCAGAUUCUGGUGAAUCUACGAAUUCUGCUGUAUAUCGC [G61A U80G],1
3,UAACAGGGGGCCACAGCAGAAGCGUUCACGUCGCAGCCCCUGUCAGAUUCUGGUGAAUCUCCGAAUUCUGCUGUAUACCUC [G61C U78C],0.33
4,UAACAGGGGGCCACAGCAGAAGCGUUCACGUCGCAGCCCCUGUCAGAUUCUGGUGAAUCUUCGUAUUCUGCUGUAUAUCUC [G61U A64U],0.23
5,UAACAGGGGGCCACAGCAGAAGCGUUCACGUCGCAGCCCCUGUCAGAUUCUGGUGAAUCUUCGAAUUCUGCCGUAUAUCUC [G61U U72C],0.72
6,UAACAGGGGGCCACAGCAGAAGCGUUCACGUCGCAGCCCCUGUCAGAUUCUGGUGAAUCUUCGAAUUCUGCGGUAUAUCUC [G61U U72G],0.53
7,UAACAGGGGGCCACAGCAGAAGCGUUCACGUCGCAGCCCCUGUCAGAUUCUGGUGAAUCUUCGAAUGCUGCUGUAUAUCUC [G61U U67G],0.23
8,UAACAGGGGGCCACAGCAGAAGCGUUCACGUCGCAGCCCCUGUCAGAUUCUGGUGAAUCUUCGAAUCCUGCUGUAUAUCUC [G61U U67C],0.21
9,UAACAGGGGGCCACAGCAGAAGCGUUCACGUCGCAGCCCCUGUCAGAUUCUGGUGAAUCUUCGAAUUCUACUGUAUAUCUC [G61U G70A],0.31
10,UAACAGGGGGCCACAGCAGAAGCGUUCACGUCGCAGCCCCUGUCAGAUUCUGGUGAAUCUUCGAAUUCUGCUGUAAAUCUC [G61U U76A],0.39
11,UAACAGGGGGCCACAGCAGAAGCGUUCACGUCGCAGCCCCUGUCAGAUUCUGGUGAAUCUCUGAAUUCUGCUGUAUAUCUC [G61C C62U],0.22
12,UAACAGGGGGCCACAGCAGAAGCGUUCACGUCGCAGCCCCUGUCAGAUUCUGGUGAAUCUCCGAGUUCUGCUGUAUAUCUC [G61C A65G],0.39
13,UAACAGGGGGCCACAGCAGAAGCGUUCACGUCGCAGCCCCUGUCAGAUUCUGGUGAAUCUCCGACUUCUGCUGUAUAUCUC [G61C A65C],0.22
14,UAACAGGGGGCCACAGCAGAAGCGUUCACGUCGCAGCCCCUGUCAGAUUCUGGUGAAUCUGAGAGUUCUGCUGUAUAUCUC [C62A A65G],0.36
15,UAACAGGGGGCCACAGCAGAAGCGUUCACGUCGCAGCCCCUGUCAGAUUCUGGUGAAUCUGAGAUUUCUGCUGUAUAUCUC [C62A A65U],0.24
16,UAACAGGGGGCCACAGCAGAAGCGUUCACGUCGCAGCCCCUGUCAGAUUCUGGUGAAUCUCCGAAUUCUGCUGAAUAUCUC [G61C U74A],0.88
17,UAACAGGGGGCCACAGCAGAAGCGUUCACGUCGCAGCCCCUGUCAGAUUCUGGUGAAUCUCCGAAUUCUGCUGCAUAUCUC [G61C U74C],0.23
